Data published in US5683904.

Biological target: ubiquitin-methionine-dihydrofolate reductase (mouse) (UniProt P00375)

Yuh1 ubiquitin-specific protease (from UniProt P35127) (enzyme)
deubiquitination in vitro (extract of E. coli expressing Yuh1), share of the fusion deubiquitinated: < 50%
